# B1: Multivesicular body sorting factor 12 (Saccharomyces cerevisiae), P42939 (parent)
# chain: MNNNVEELLRRIPLYNKYGKDFPQETVTRFQMPEFKLPALQPTRDLLCPWYEECDNITKVCQLHDSSNKKFDQWYKEQYLSKKPPGIVGNTLLSPSRKDNS
# partner: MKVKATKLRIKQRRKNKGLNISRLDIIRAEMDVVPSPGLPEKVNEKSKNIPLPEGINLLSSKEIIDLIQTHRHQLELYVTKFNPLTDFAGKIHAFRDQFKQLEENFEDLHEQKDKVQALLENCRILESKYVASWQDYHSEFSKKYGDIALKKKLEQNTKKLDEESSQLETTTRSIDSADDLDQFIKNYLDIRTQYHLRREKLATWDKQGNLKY
# B2: Suppressor protein STP22 of temperature-sensitive alpha-factor receptor and arginine permease (Saccharomyces cerevisiae), P25604 (parent)
# chain: MSANGKISVPEAVVNWLFKVIQPIYNDGRTTFHDSLALLDNFHSLRPRTRVFTHSDGTPQLLLSIYGTISTGEDGSSPHSIPVIMWVPSMYPVKPPFISINLENFDMNTISSSLPIQEYIDSNGWIALPILHCWDPAAMNLIMVVQELMSLLHEPPQDQAPSLPPKPNTQLQQEQNTPPLPPKPKSPHLKPPLPPPPPPQPASNALDLMDMDNTDISPTNHHEMLQNLQTVVNELYREDVDYVADKILTRQTVMQESIARFHEIIAIDKNHLRAVEQAIEQTMHSLNAQIDVLTANRAKVQQFSSTSHVDDEDVNSIAVAKTDGLNQLYNLVAQDYALTDTIECLSRMLHRGTIPLDTFVKQGRELARQQFLVRWHIQRITSPLS
# partner: B1 partner
# B3: Multivesicular body sorting factor 12 (Saccharomyces cerevisiae), P42939 (parent)
# chain: B1 chain
# partner: B2 chain
# B4: Suppressor protein STP22 of temperature-sensitive alpha-factor receptor and arginine permease (Saccharomyces cerevisiae), P25604 (parent)
# chain: B2 chain
# partner: B1 chain
# Variants of: B1
# Conditions: with srn2_yeast SRN2, Q99176
row,Variant,effect of a mutation on the interaction
1,MNNNVEELLRRIPLYNKYGKDFPQETVTRFQMPEFKLPALQPTRDLDCPWYEECDNDTKVCQLHDSSNKKFDQWYKEQYLSKKPPGIVGNTLLSPSRKDNS [L47D;I57D],decreasing interaction

# Variants of: B2
# Conditions: with srn2_yeast SRN2, Q99176
row,Variant,effect of a mutation on the interaction
1,MSANGKISVPEAVVNWLFKVIQPIYNDGRTTFHDSLALLDNFHSLRPRTRVFTHSDGTPQLLLSIYGTISTGEDGSSPHSIPVIMWVPSMYPVKPPFISINLENFDMNTISSSLPIQEYIDSNGWIALPILHCWDPAAMNLIMVVQELMSLLHEPPQDQAPSLPPKPNTQLQQEQNTPPLPPKPKSPHLKPPLPPPPPPQPASNALDLMDMDNTDISPTNHHEMLQNLQTVVNELYREDVDYVADKILTRQTVDQESIARFHEIIAIDKNHLRAVEQAIEQTMHSLNAQIDVLTANRAKVQQFSSTSHVDDEDVNSIAVAKTDGLNQLYNLVAQDYALTDTIECLSRMLHRGTIPLDTFVKQGRELARQQFLVRWHIQRITSPLS [M254D],decreasing interaction

# Variants of: B3
# Conditions: with stp22_yeast STP22, P25604
row,Variant,effect of a mutation on the interaction
1,MNNNVEELLRRIPLYNKYGKDFPQETVTRFQMPEFKLPALQPTRDLDCPWYEECDNDTKVCQLHDSSNKKFDQWYKEQYLSKKPPGIVGNTLLSPSRKDNS [L47D;I57D],decreasing interaction

# Variants of: B4
# Conditions: with mvb12_yeast MVB12, P42939
row,Variant,effect of a mutation on the interaction
1,MSANGKISVPEAVVNWLFKVIQPIYNDGRTTFHDSLALLDNFHSLRPRTRVFTHSDGTPQLLLSIYGTISTGEDGSSPHSIPVIMWVPSMYPVKPPFISINLENFDMNTISSSLPIQEYIDSNGWIALPILHCWDPAAMNLIMVVQELMSLLHEPPQDQAPSLPPKPNTQLQQEQNTPPLPPKPKSPHLKPPLPPPPPPQPASNALDLMDMDNTDISPTNHHEMLQNLQTVVNELYREDVDYVADKILTRQTVDQESIARFHEIIAIDKNHLRAVEQAIEQTMHSLNAQIDVLTANRAKVQQFSSTSHVDDEDVNSIAVAKTDGLNQLYNLVAQDYALTDTIECLSRMLHRGTIPLDTFVKQGRELARQQFLVRWHIQRITSPLS [M254D],decreasing interaction
